Patent publication US20090048164A1 (WALTER AND ELIZA HALL INSTITUTE OF MEDICAL RESEARCH, published 2009)
Read-outs that look alike come from different tables or passages of the source.

Experiments:
Experiment in all cases: competition phage ELISA
[1] = target: T1, Bcl-w
T1 chain: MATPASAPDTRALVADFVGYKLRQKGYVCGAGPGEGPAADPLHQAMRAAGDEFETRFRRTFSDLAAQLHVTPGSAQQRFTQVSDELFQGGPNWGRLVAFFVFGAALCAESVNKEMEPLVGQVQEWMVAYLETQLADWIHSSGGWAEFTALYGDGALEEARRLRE

[2] = target: Bcl-2
[3] = target: T1, Bcl-w

Sequence of Bcl-2 (chain, as listed by the source): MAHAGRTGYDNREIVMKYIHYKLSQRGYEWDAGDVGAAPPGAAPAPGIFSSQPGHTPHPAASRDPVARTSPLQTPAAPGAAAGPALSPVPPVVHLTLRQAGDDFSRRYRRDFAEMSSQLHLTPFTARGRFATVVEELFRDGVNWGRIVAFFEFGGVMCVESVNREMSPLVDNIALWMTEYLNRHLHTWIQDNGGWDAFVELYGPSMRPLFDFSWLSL

B1: Bad BH3 N1A, phage-displayed (peptide)
peptide: ALWAAQRYGRELRRMSDEFVDSFKKG
notes: M13 phage display: FLAG-26mer-GGGT-g3(249-406)
- Fold/wt [1]: 1 fold
- IC50 [1]: 47 nM
- Fold/wt [2]: 1 fold
- IC50 [2]: 10 nM

B2: Bad BH3 L2A, phage-displayed (peptide)
peptide: NAWAAQRYGRELRRMSDEFVDSFKKG
notes: as for B1
- Fold/wt [1]: 1 fold
- IC50 [1]: 35 nM
- Fold/wt [2]: 1 fold
- IC50 [2]: 7 nM

B3: Bad BH3 W3A, phage-displayed (peptide)
peptide: NLAAAQRYGRELRRMSDEFVDSFKKG
notes: as for B1
- Fold/wt [1]: 1 fold
- IC50 [1]: 33 nM
- Fold/wt [2]: 1 fold
- IC50 [2]: 12 nM

B4: Bad BH3 A4E, phage-displayed (peptide)
peptide: NLWEAQRYGRELRRMSDEFVDSFKKG
notes: as for B1
- Fold/wt [1]: 1 fold
- IC50 [1]: 46 nM
- Fold/wt [2]: 1 fold
- IC50 [2]: 10 nM

B5: Bad BH3 A5E, phage-displayed (peptide)
peptide: NLWAEQRYGRELRRMSDEFVDSFKKG
notes: as for B1
- Fold/wt [1]: 4 fold
- IC50 [1]: 152 nM
- Fold/wt [2]: 2 fold
- IC50 [2]: 26 nM

B6: Bad BH3 Q6A, phage-displayed (peptide)
peptide: NLWAAARYGRELRRMSDEFVDSFKKG
notes: as for B1
- Fold/wt [1]: 1 fold
- IC50 [1]: 47 nM
- Fold/wt [2]: 1 fold
- IC50 [2]: 18 nM

B7: Bad BH3 R7A, phage-displayed (peptide)
peptide: NLWAAQAYGRELRRMSDEFVDSFKKG
notes: as for B1
- Fold/wt [1]: 1 fold
- IC50 [1]: 32 nM
- Fold/wt [2]: 1 fold
- IC50 [2]: 14 nM

B8: Bad BH3 Y8A, phage-displayed (peptide)
peptide: NLWAAQRAGRELRRMSDEFVDSFKKG
notes: as for B1
- Fold/wt [1]: 2 fold
- IC50 [1]: 77 nM
- Fold/wt [2]: 1 fold
- IC50 [2]: 19 nM

B9: Bad BH3 R10A, phage-displayed (peptide)
peptide: NLWAAQRYGAELRRMSDEFVDSFKKG
notes: as for B1
- Fold/wt [1]: 1 fold
- IC50 [1]: 41 nM
- Fold/wt [2]: 1 fold
- IC50 [2]: 14 nM

B10: Bad BH3 R13A, phage-displayed (peptide)
peptide: NLWAAQRYGRELARMSDEFVDSFKKG
notes: as for B1
- Fold/wt [1]: 1 fold
- IC50 [1]: 52 nM
- Fold/wt [2]: 1 fold
- IC50 [2]: 19 nM

B11: Bad BH3 R14A, phage-displayed (peptide)
peptide: NLWAAQRYGRELRAMSDEFVDSFKKG
notes: as for B1
- Fold/wt [1]: 2 fold
- IC50 [1]: 86 nM
- Fold/wt [2]: 5 fold
- IC50 [2]: 57 nM

B12: Bad BH3 M15A, phage-displayed (peptide)
peptide: NLWAAQRYGRELRRASDEFVDSFKKG
notes: as for B1
- Fold/wt [1]: 1 fold
- IC50 [1]: 43 nM
- Fold/wt [2]: 3 fold
- IC50 [2]: 43 nM

B13: Bad BH3 D17A, phage-displayed (peptide)
peptide: NLWAAQRYGRELRRMSAEFVDSFKKG
notes: as for B1
- Fold/wt [1]: 3 fold
- IC50 [1]: 128 nM

B14: Bad BH3 E18A, phage-displayed (peptide)
peptide: NLWAAQRYGRELRRMSDAFVDSFKKG
notes: as for B1
- Fold/wt [1]: 1 fold
- IC50 [1]: 55 nM
- Fold/wt [2]: 2 fold
- IC50 [2]: 29 nM

B15: Bad BH3 V20A, phage-displayed (peptide)
peptide: NLWAAQRYGRELRRMSDEFADSFKKG
notes: as for B1
- Fold/wt [1]: 1 fold
- IC50 [1]: 38 nM
- Fold/wt [2]: 1 fold
- IC50 [2]: 13 nM

B16: Bad BH3 D21A, phage-displayed (peptide)
peptide: NLWAAQRYGRELRRMSDEFVASFKKG
notes: as for B1
- Fold/wt [1]: 1 fold
- IC50 [1]: 28 nM
- Fold/wt [2]: 1 fold
- IC50 [2]: 17 nM

B17: Bad BH3 S22A, phage-displayed (peptide)
peptide: NLWAAQRYGRELRRMSDEFVDAFKKG
notes: as for B1
- Fold/wt [1]: 2 fold
- IC50 [1]: 77 nM
- Fold/wt [2]: 1 fold
- IC50 [2]: 19 nM

B18: Bad BH3 F23A, phage-displayed (peptide)
peptide: NLWAAQRYGRELRRMSDEFVDSAKKG
notes: as for B1
- Fold/wt [1]: 2 fold
- IC50 [1]: 83 nM

B19: Bad BH3 K24A, phage-displayed (peptide)
peptide: NLWAAQRYGRELRRMSDEFVDSFAKG
notes: as for B1
- Fold/wt [1]: 1 fold
- IC50 [1]: 54 nM
- Fold/wt [2]: 1 fold
- IC50 [2]: 14 nM

B20: Bad BH3 K25A, phage-displayed (peptide)
peptide: NLWAAQRYGRELRRMSDEFVDSFKAG
notes: as for B1
- Fold/wt [1]: 1 fold
- IC50 [1]: 46 nM
- Fold/wt [2]: 1 fold
- IC50 [2]: 13 nM

B21: Bad BH3 G26E, phage-displayed (peptide)
peptide: NLWAAQRYGRELRRMSDEFVDSFKKE
notes: as for B1
- Fold/wt [1]: 1 fold
- IC50 [1]: 37 nM
- Fold/wt [2]: 1 fold
- IC50 [2]: 15 nM

B22: Bad BH3 wild type, phage-displayed (peptide)
peptide: NLWAAQRYGRELRRMSDEFVDSFKKG
notes: M13 phage display: FLAG-26mer-GGGT-g3(249-406); also called wtBad
- Fold/wt [1]: 1 fold
- IC50 [1]: 37 nM
- Fold/wt [2]: 1 fold
- IC50 [2]: 13 nM

B23: Bid BH3 Q1A, phage-displayed (peptide)
peptide: AEDIIRNIARHLAQVGDSMDRSIPPG
notes: as for B1
- Fold/wt [3]: 1 fold
- IC50 [3]: 29 nM

B24: Bid BH3 E2A, phage-displayed (peptide)
peptide: QADIIRNIARHLAQVGDSMDRSIPPG
notes: as for B1
- Fold/wt [3]: 2 fold
- IC50 [3]: 34 nM

B25: Bid BH3 D3A, phage-displayed (peptide)
peptide: QEAIIRNIARHLAQVGDSMDRSIPPG
notes: as for B1
- Fold/wt [3]: 1 fold
- IC50 [3]: 34 nM

B26: Bid BH3 I4A, phage-displayed (peptide)
peptide: QEDAIRNIARHLAQVGDSMDRSIPPG
notes: as for B1
- Fold/wt [3]: 1 fold
- IC50 [3]: 23 nM

B27: Bid BH3 I5A, phage-displayed (peptide)
peptide: QEDIARNIARHLAQVGDSMDRSIPPG
notes: as for B1
- Fold/wt [3]: 2 fold
- IC50 [3]: 34 nM

B28: Bid BH3 R6A, phage-displayed (peptide)
peptide: QEDIIANIARHLAQVGDSMDRSIPPG
notes: as for B1
- Fold/wt [3]: 2 fold
- IC50 [3]: 42 nM

B29: Bid BH3 N7A, phage-displayed (peptide)
peptide: QEDIIRAIARHLAQVGDSMDRSIPPG
notes: as for B1
- Fold/wt [3]: 1 fold
- IC50 [3]: 25 nM

B30: Bid BH3 I8A, phage-displayed (peptide)
peptide: QEDIIRNAARHLAQVGDSMDRSIPPG
notes: as for B1
- Fold/wt [3]: 8 fold
- IC50 [3]: 182 nM

B31: Bid BH3 R10A, phage-displayed (peptide)
peptide: QEDIIRNIAAHLAQVGDSMDRSIPPG
notes: as for B1
- Fold/wt [3]: 2 fold
- IC50 [3]: 46 nM

B32: Bid BH3 H11A, phage-displayed (peptide)
peptide: QEDIIRNIARALAQVGDSMDRSIPPG
notes: as for B1
- Fold/wt [3]: 1 fold
- IC50 [3]: 17 nM

B33: Bid BH3 L12A, phage-displayed (peptide)
peptide: QEDIIRNIARHAAQVGDSMDRSIPPG
notes: as for B1
- Fold/wt [3]: 25 fold
- IC50 [3]: 553 nM

B34: Bid BH3 A13E, phage-displayed (peptide)
peptide: QEDIIRNIARHLEQVGDSMDRSIPPG
notes: as for B1
- Fold/wt [3]: 11 fold
- IC50 [3]: 253 nM

B35: Bid BH3 Q14A, phage-displayed (peptide)
peptide: QEDIIRNIARHLAAVGDSMDRSIPPG
notes: as for B1
- Fold/wt [3]: 1 fold
- IC50 [3]: 25 nM

B36: Bid BH3 V15A, phage-displayed (peptide)
peptide: QEDIIRNIARHLAQAGDSMDRSIPPG
notes: as for B1
- Fold/wt [3]: 3 fold
- IC50 [3]: 59 nM

B37: Bid BH3 S18A, phage-displayed (peptide)
peptide: QEDIIRNIARHLAQVGDAMDRSIPPG
notes: as for B1
- Fold/wt [3]: 1 fold
- IC50 [3]: 31 nM

B38: Bid BH3 D20A, phage-displayed (peptide)
peptide: QEDIIRNIARHLAQVGDSMARSIPPG
notes: as for B1
- Fold/wt [3]: 1 fold
- IC50 [3]: 24 nM

B39: Bid BH3 R21A, phage-displayed (peptide)
peptide: QEDIIRNIARHLAQVGDSMDASIPPG
notes: as for B1
- Fold/wt [3]: 2 fold
- IC50 [3]: 52 nM

B40: Bid BH3 S22A, phage-displayed (peptide)
peptide: QEDIIRNIARHLAQVGDSMDRAIPPG
notes: as for B1
- Fold/wt [3]: 1 fold
- IC50 [3]: 27 nM

B41: Bid BH3 I23A, phage-displayed (peptide)
peptide: QEDIIRNIARHLAQVGDSMDRSAPPG
notes: as for B1
- Fold/wt [3]: 1 fold
- IC50 [3]: 18 nM

B42: Bid BH3 P24A, phage-displayed (peptide)
peptide: QEDIIRNIARHLAQVGDSMDRSIAPG
notes: as for B1
- Fold/wt [3]: 1 fold
- IC50 [3]: 25 nM

B43: Bid BH3 P25A, phage-displayed (peptide)
peptide: QEDIIRNIARHLAQVGDSMDRSIPAG
notes: as for B1
- Fold/wt [3]: 1 fold
- IC50 [3]: 26 nM

B44: Bid BH3 G26E, phage-displayed (peptide)
peptide: QEDIIRNIARHLAQVGDSMDRSIPPE
notes: as for B1
- Fold/wt [3]: 1 fold
- IC50 [3]: 25 nM

B45: Bid BH3 wild type, phage-displayed (peptide)
peptide: QEDIIRNIARHLAQVGDSMDRSIPPG
notes: M13 phage display: FLAG-26mer-GGGT-g3(249-406); also called wtBid
- Fold/wt [3]: 1 fold
- IC50 [3]: 23 nM
